This is an account of results in the Human Domainome abundance scans (Beltran et al. 2025).

± gives the uncertainty stated by the source.

Sequences and labels used below:
B1: Gamma-crystallin C, residues 4 to 79; numbered along this chain, P07315 (parent)
chain: ITFYEDRAFQGRSYETTTDCPNLQPYFSRCNSIRVESGCWMLYERPNYQGQQYLLRRGEYPDYQQWMGLSDSIRSC

The variants in the data set derive from B1. Kind of data set: abundance fitness (aPCA) (normalised: wild type 0, dead -1); higher = more abundant; growth selection in yeast, the domain comes from the species named. Particulars: Homo sapiens.
As for ITFYEDRAFFGRSYETTTDCPNLQPYFSRCNSIRVESGCWMLYERPNYQGQQYLLRRGEYPDYQQWMGLSDSIRSC [Q10F], the abundance fitness is -0.082 ± 0.14.

In the case of ITFYEDRAFTGRSYETTTDCPNLQPYFSRCNSIRVESGCWMLYERPNYQGQQYLLRRGEYPDYQQWMGLSDSIRSC [Q10T], the abundance fitness amounted to 0.034 ± 0.15.

Turning to ITFYEDRAFSGRSYETTTDCPNLQPYFSRCNSIRVESGCWMLYERPNYQGQQYLLRRGEYPDYQQWMGLSDSIRSC [Q10S], the abundance fitness was -0.066 ± 0.066.

Regarding ITFYEDRAFKGRSYETTTDCPNLQPYFSRCNSIRVESGCWMLYERPNYQGQQYLLRRGEYPDYQQWMGLSDSIRSC [Q10K], the abundance fitness worked out at 0.158 ± 0.11.

On to ITFYEDRAFHGRSYETTTDCPNLQPYFSRCNSIRVESGCWMLYERPNYQGQQYLLRRGEYPDYQQWMGLSDSIRSC [Q10H], for which the abundance fitness is 0.124 ± 0.24.

For ITFYEDRAFAGRSYETTTDCPNLQPYFSRCNSIRVESGCWMLYERPNYQGQQYLLRRGEYPDYQQWMGLSDSIRSC [Q10A], the abundance fitness was 0.065 ± 0.076.

For ITFYEDRAFGGRSYETTTDCPNLQPYFSRCNSIRVESGCWMLYERPNYQGQQYLLRRGEYPDYQQWMGLSDSIRSC [Q10G], the abundance fitness was -0.002 ± 0.038.

Consider ITFYEDRAFMGRSYETTTDCPNLQPYFSRCNSIRVESGCWMLYERPNYQGQQYLLRRGEYPDYQQWMGLSDSIRSC [Q10M], for which the abundance fitness is -0.228 ± 0.11.

Turning to ITFYEDRAFYGRSYETTTDCPNLQPYFSRCNSIRVESGCWMLYERPNYQGQQYLLRRGEYPDYQQWMGLSDSIRSC [Q10Y], the abundance fitness was -0.107 ± 0.22.

With ITFYEDRAFLGRSYETTTDCPNLQPYFSRCNSIRVESGCWMLYERPNYQGQQYLLRRGEYPDYQQWMGLSDSIRSC [Q10L], the abundance fitness was -0.123 ± 0.067.

On to ITFYEDRAFPGRSYETTTDCPNLQPYFSRCNSIRVESGCWMLYERPNYQGQQYLLRRGEYPDYQQWMGLSDSIRSC [Q10P], for which the abundance fitness is -1.2 ± 0.42.

Consider ITFYEDRAFCGRSYETTTDCPNLQPYFSRCNSIRVESGCWMLYERPNYQGQQYLLRRGEYPDYQQWMGLSDSIRSC [Q10C], for which the abundance fitness worked out at 0.053 ± 0.075.

Regarding ITFYEDRAFWGRSYETTTDCPNLQPYFSRCNSIRVESGCWMLYERPNYQGQQYLLRRGEYPDYQQWMGLSDSIRSC [Q10W], the abundance fitness was -0.159 ± 0.091.

Take ITFYEDRAFVGRSYETTTDCPNLQPYFSRCNSIRVESGCWMLYERPNYQGQQYLLRRGEYPDYQQWMGLSDSIRSC [Q10V]: the abundance fitness amounted to 0.033 ± 0.073.

For ITFYEDRAFRGRSYETTTDCPNLQPYFSRCNSIRVESGCWMLYERPNYQGQQYLLRRGEYPDYQQWMGLSDSIRSC [Q10R], the abundance fitness is -0.082 ± 0.052.

For ITFYEDRAFNGRSYETTTDCPNLQPYFSRCNSIRVESGCWMLYERPNYQGQQYLLRRGEYPDYQQWMGLSDSIRSC [Q10N], the abundance fitness was -0.094 ± 0.13.

With ITFYEDWAFQGRSYETTTDCPNLQPYFSRCNSIRVESGCWMLYERPNYQGQQYLLRRGEYPDYQQWMGLSDSIRSC [R7W], the abundance fitness is -0.086 ± 0.11.

On to ITFYEDYAFQGRSYETTTDCPNLQPYFSRCNSIRVESGCWMLYERPNYQGQQYLLRRGEYPDYQQWMGLSDSIRSC [R7Y], for which the abundance fitness is -0.266 ± 0.24.

ITFYEDNAFQGRSYETTTDCPNLQPYFSRCNSIRVESGCWMLYERPNYQGQQYLLRRGEYPDYQQWMGLSDSIRSC [R7N]: the abundance fitness is 0.044 ± 0.12.

With ITFYEDSAFQGRSYETTTDCPNLQPYFSRCNSIRVESGCWMLYERPNYQGQQYLLRRGEYPDYQQWMGLSDSIRSC [R7S], the abundance fitness was -0.117 ± 0.11.

Consider ITFYEDLAFQGRSYETTTDCPNLQPYFSRCNSIRVESGCWMLYERPNYQGQQYLLRRGEYPDYQQWMGLSDSIRSC [R7L], for which the abundance fitness is -0.029 ± 0.12.

For the variant ITFYEDDAFQGRSYETTTDCPNLQPYFSRCNSIRVESGCWMLYERPNYQGQQYLLRRGEYPDYQQWMGLSDSIRSC [R7D], the abundance fitness was -0.153 ± 0.32.

ITFYEDFAFQGRSYETTTDCPNLQPYFSRCNSIRVESGCWMLYERPNYQGQQYLLRRGEYPDYQQWMGLSDSIRSC [R7F]: the abundance fitness was -0.082 ± 0.17.

With ITFYEDMAFQGRSYETTTDCPNLQPYFSRCNSIRVESGCWMLYERPNYQGQQYLLRRGEYPDYQQWMGLSDSIRSC [R7M], the abundance fitness was -0.444 ± 0.21.

Consider ITFYEDTAFQGRSYETTTDCPNLQPYFSRCNSIRVESGCWMLYERPNYQGQQYLLRRGEYPDYQQWMGLSDSIRSC [R7T], for which the abundance fitness was -0.237 ± 0.19.

For the variant ITFYEDIAFQGRSYETTTDCPNLQPYFSRCNSIRVESGCWMLYERPNYQGQQYLLRRGEYPDYQQWMGLSDSIRSC [R7I], the abundance fitness was -0.141 ± 0.31.

Consider ITFYEDCAFQGRSYETTTDCPNLQPYFSRCNSIRVESGCWMLYERPNYQGQQYLLRRGEYPDYQQWMGLSDSIRSC [R7C], for which the abundance fitness was -0.002 ± 0.15.

In the case of ITFYEDKAFQGRSYETTTDCPNLQPYFSRCNSIRVESGCWMLYERPNYQGQQYLLRRGEYPDYQQWMGLSDSIRSC [R7K], the abundance fitness was -0.141 ± 0.2.

As for ITFYEDQAFQGRSYETTTDCPNLQPYFSRCNSIRVESGCWMLYERPNYQGQQYLLRRGEYPDYQQWMGLSDSIRSC [R7Q], the abundance fitness is 0.013 ± 0.073.

Take ITFYEDGAFQGRSYETTTDCPNLQPYFSRCNSIRVESGCWMLYERPNYQGQQYLLRRGEYPDYQQWMGLSDSIRSC [R7G]: the abundance fitness was -0.02 ± 0.064.

ITFYEDAAFQGRSYETTTDCPNLQPYFSRCNSIRVESGCWMLYERPNYQGQQYLLRRGEYPDYQQWMGLSDSIRSC [R7A]: the abundance fitness was -0.031 ± 0.089.

ITFYEDVAFQGRSYETTTDCPNLQPYFSRCNSIRVESGCWMLYERPNYQGQQYLLRRGEYPDYQQWMGLSDSIRSC [R7V]: the abundance fitness turned out to be 0.045 ± 0.087.

Regarding ITFYEDPAFQGRSYETTTDCPNLQPYFSRCNSIRVESGCWMLYERPNYQGQQYLLRRGEYPDYQQWMGLSDSIRSC [R7P], the abundance fitness was 0.219 ± 0.3.

Regarding ITFYEWRAFQGRSYETTTDCPNLQPYFSRCNSIRVESGCWMLYERPNYQGQQYLLRRGEYPDYQQWMGLSDSIRSC [D6W], the abundance fitness was -0.208 ± 0.072.

Turning to ITFYEPRAFQGRSYETTTDCPNLQPYFSRCNSIRVESGCWMLYERPNYQGQQYLLRRGEYPDYQQWMGLSDSIRSC [D6P], the abundance fitness is -0.819 ± 0.45.

ITFYEMRAFQGRSYETTTDCPNLQPYFSRCNSIRVESGCWMLYERPNYQGQQYLLRRGEYPDYQQWMGLSDSIRSC [D6M]: the abundance fitness is 0.159 ± 0.25.
